In US20220226469A1 (ARCH ONCOLOGY, published 2022):

How the values were obtained:
[1] = target: T1, human SIRPα expressed on cells (THP-1 cells, human monocyte-derived macrophages, dendritic cells) (human, UniProt P78324 31-504); assay: flow cytometry on human monocyte-derived dendritic cells; apparent Kd
T1 construct: Endogenous SIRPα of cell line or donor cells; also called cell-expressed SIRPα; macrophage expressed SIRPα
Description: (§1) Human CD14⁺ monocytes, isolated from peripheral blood mononuclear cells (Astarte Biologics) were differentiated in vitro for seven days into macrophages or dendritic cells. For macrophage differentiation, monocytes were incubated in AIM-V media (Life Technologies) supplemented with 50 ng/ml M-CSF (Biolegend) for seven days. For dendritic cell differentiation, monocytes were incubated in AIM-V media (Life Technologies) in the presence of 10% human AB serum (Valley Biomedical), 200 ng/ml GM-CSF (Biolegend) and 50 ng/ml IL-4 (Biolegend). The cells were incubated for 1 h at 37° C., 5% CO₂ with serial dilutions of SIRP mAbs in binding buffer containing 1 mM EDTA (Sigma Aldrich) and 1% FBS (Biowest) in PBS (Corning). The cells were then washed and stained for 45 min under the same conditions with donkey anti-mouse IgG fluorescein isothiocyanate (FITC)-linked secondary antibody (Jackson ImmunoResearch Laboratories). The cells were subsequently stained with anti-CD14 or anti-CD11c conjugated to Alexa Fluor 647 fluorophore (Life Technologies and Biolegend, respectively) for 30 min on ice, washed and analyzed by flow cytometry (Attune, Life Technologies). Binding was assessed as the median FITC fluorescence intensity of CD14⁺ or CD11c⁺ cells, subtracted from cells stained with the secondary antibody only.

[2] = target: T2, HIS tagged human SIRPα (ACRO #SIG-H5225) (human, UniProt P78324 31-373); assay: blocking ELISA on plate-coated HIS tagged human SIRPα; competitor Fc tagged human CD47 (250 ng/ml)
T2 construct: Bought protein; also called Histidine (HIS) tagged human SIRPα; not shown: histidine tag
T2 sequence (P78324 31-373 limits assumed): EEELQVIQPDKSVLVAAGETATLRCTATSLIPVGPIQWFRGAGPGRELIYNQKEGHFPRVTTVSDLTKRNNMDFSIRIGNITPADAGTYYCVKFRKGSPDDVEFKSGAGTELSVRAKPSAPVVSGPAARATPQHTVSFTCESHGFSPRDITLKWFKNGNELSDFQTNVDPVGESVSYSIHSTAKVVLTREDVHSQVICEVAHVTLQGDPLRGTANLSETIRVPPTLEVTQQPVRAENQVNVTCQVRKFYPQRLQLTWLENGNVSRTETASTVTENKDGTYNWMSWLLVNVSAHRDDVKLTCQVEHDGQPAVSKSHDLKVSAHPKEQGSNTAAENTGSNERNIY
Description: HIS tagged human SIRPα (ACRO #SIG-H5225) is adsorbed to high-binding microtiter plates at a concentration of 1 μg/ml diluted in PBS overnight at 4° C. The coating solution is removed, the wells are washed and then blocked with […] in PBS containing 0.5% Tween 20 (PBST) for 60 minutes at room temperature while shaking. Blocking solution is removed, the wells are washed and incubated for 60 minutes at room temperature while shaking with anti-SIRP mAbs diluted in PBST at a starting concentration of 30 μg/ml and reducing the concentration by 3-fold serial dilutions. Wells are washed three times with PBST and incubated for 60 minutes at room temperature while shaking with an FC tagged human CD47 (ACRO #CD7-H5256) at a concentration of 250 ng/ml in PBST. Wells are washed three times with PBST and incubated for 60 minutes at room temperature while shaking with an HRP labeled donkey anti-mouse or anti-human secondary antibody (Jackson ImmunoResearch Laboratories) diluted 1:20,000 in PBST. The wells are washed and then incubated with peroxidase substrate and the absorbance at 450 nm determined. The IC₅₀ was calculated using a non-linear fit model (GraphPad Prism).

[3] = target: T1, human SIRPα expressed on cells (THP-1 …); assay: flow cytometry on human monocyte-derived macrophages; apparent Kd
Description: as §1

T1 sequence (P78324 other isoform, or with tags, fused parts or gaps): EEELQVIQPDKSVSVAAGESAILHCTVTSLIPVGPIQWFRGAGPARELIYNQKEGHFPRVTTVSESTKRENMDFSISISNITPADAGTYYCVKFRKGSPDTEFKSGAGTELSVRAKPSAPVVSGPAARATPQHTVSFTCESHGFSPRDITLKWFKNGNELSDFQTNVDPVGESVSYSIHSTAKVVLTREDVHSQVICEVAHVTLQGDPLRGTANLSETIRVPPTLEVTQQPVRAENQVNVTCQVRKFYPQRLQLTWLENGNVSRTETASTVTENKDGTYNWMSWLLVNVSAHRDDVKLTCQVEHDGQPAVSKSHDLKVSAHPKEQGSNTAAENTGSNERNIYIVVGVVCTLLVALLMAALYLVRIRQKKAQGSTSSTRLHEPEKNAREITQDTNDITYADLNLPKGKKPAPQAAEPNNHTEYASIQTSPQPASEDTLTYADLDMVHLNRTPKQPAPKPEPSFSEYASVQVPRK

Row | Kd [1] [nM] | IC50 [2] [nM] | Kd [3] [nM] | Binder
1 | 0.00347 | 2.7 | – | SIRP3 (antibody, mouse IgG1, kappa, V domains shown, Hybridoma-derived mouse mAb) VH: EVQLQQSGPEVVKPGASVKMSCKASGYTFTSYVMHWVKQKPGQGLEWIGYINPYNDGPKYNEKFKGKATLTSDKSSSTAYMELSSLTSEDSAVYFCARWDYFNSASGFAFWGQGTLVTVSA VL: EIVLTQSPTTMAASPGEKITIICSASSIIGSDFLHWYQQRPGFSPKFLIYRTSILASGVPTRFTGSGSGTSYSLTIGTMEAEDVATYYCQQGSGLPLTFGSGTKLEMKR
2 | 0.05 | 0.71 | 0.0207 | SIRP4 (antibody, V domains shown, anti-mouse secondary) VH: EVQLQQSGPDLVKPGASVKISCKASGYSFTDYFLNWVKQSHGKSLEWIGRINPYNGDSFINQNFRDKATLTVDKSSTTAHMDLLSLTSEDSAIYYCGRGGYDGYFIAYFDYWGQGSLVTVSA VL: DIKLTQSQSSMYSSLGQRVTITCKASQDINSHLSWFQEKPGKSPKTLIYRANRLADGVPSRFSGSGSGQDYFLTISSLEYEDVGIYYCLQYDEFPYTFGGGTKLEIK
3 | 0.77 | – | – | SIRP5 (antibody, V domains shown) VH: QVQLQQSAAELARPGASVKMSCKASGYTFTSYTMHWVKQRPGQGLEWIGYINPTIGYTEYNQKFKDKTTLTADKSSSTAYMQLSSLTSEDSAVYYCVRLVITSVLGRAMDYWGQGTSVTVSS VL: QIVLTQSPALMSASPGEKVTMTCSASSSVSYMYWFQQKPRSSPKPWIYLTSNLASGVPARFSGSGSGTSYSLTISSMEAEDAATYYCQQWSGNPFTFGSGTKLEIK
4 | 0.0234 | – | – | KWAR-23 (antibody, V domains shown) VH: EVQLQQSGAELVKPGASVKLSCTASGFNIKDYYIHWVQQRTEQGLEWIGRIDPEDGETKYAPKFQDKATITADTSSNTAYLHLSSLTSEDTAVYYCARWGAYWGQGTLVTVSA VL: QIVLTQSPAIMSASPGEKVTLTCSASSSVSSSYLYWYQQKPGSSPKLWIYSTSNLASGVPARFSGSGSGTSYSLTISSMEAEDAASYFCHQWSSYPRTFGAGTKLELKR
5 | – | 3 | – | SIRP2 (antibody, mouse IgG1, kappa, V domains shown, Hybridoma-derived mouse mAb) VH: EVKLVESGGGLVQPGGSLKLSCAASGFSFSGCTMSWIRQTPERRLEWVAYISNGGDITYYPDTVKGRFTISRDNAKNSLYLQMSSLKSEDTAMYYCARLDGYYYAMDFWGQGTSVTVSS VL: DILLTQSPAILSVSPGERVSFSCRASQSIGTSIHWYQQRTNGSPRLLIKYGSESISGIPSRFSGSGSGTDFTLSINSVESEDIADYYCQQSNTWPLTFGDGTKLELKR
6 | – | – | 0.0937 | SIRP9 (antibody, V domains shown, anti-mouse secondary) VH: EVQLQESGAELVRPGASVKLSCKALGYTFTDYEIHWVKETPVYGLEWIGDIHPGSGGTANNQKFKGKATLTADKSSNTAYMELSSLTSEDSAVYYCTRAVSGYYAMDYWGQGTSVTVSS VL: DIQMTQSSSSFSGSLGDRLTINCKASEDIYDRVAWYQQKPGNAPRLLISGTASLETGVLSRFSGSGSGKDYTLSINGLQAEDVATYYCQQYWTTPWTFGGGTKLEIK
7 | – | 1.1 | – | SIRP7 (antibody, V domains shown) VH: EVQLQQSGPELVKPGASVKMSCRASGYTFSTYVMHWIKHRPGQGLEWIGYINPNNDGPNYNEKFKGKATLTSDISSSTAYMELSSLTSEDSAVYFCSRWDSYNSAAGFAYWGHGTLVTVSA VL: EIVLTQSPTTMAASPGEKITIICSASSSISSNFLHWYQQKPGFSPRFLIYRTSILASGVPTRFSGSGSGTSYSLTIDTMEAEDVATYYCQQGSGLPLTFGSGTKLEIK
